Measured values reported in PMC4963475 (2016).
Non-standard residues stand in square brackets, D forms with d. No end group written: not given here. pT = C[C@@H](OP(=O)(O)O)[C@H](N)C(=O)O; Nle = CCCC[C@H](N)C(=O)O

What was measured:
[1] = target: T1, BubR1/Bub3 complex (3×FLAG–BubR1 with untagged Bub3) (UniProt O60566 1-1050; O43684 1-328); test: MST; 200 mM NaCl
[2] = target: T1, BubR1/Bub3 complex (3×FLAG–BubR1 with …); test: MST; 50 mM NaCl
[3] = target: T1, BubR1/Bub3 complex (3×FLAG–BubR1 with …); test: MST; 0 mM NaCl
[4] = target: Bub1(1–553)/Bub3 complex (3×FLAG–Bub1(1–553) with untagged Bub3) (UniProt O43683 1-553; O43684 1-328); test: MST
[5] = target: T1, BubR1/Bub3 complex (3×FLAG–BubR1 with …); test: MST
[6] = target: T1, BubR1/Bub3 complex (3×FLAG–BubR1 with …); test: MST; 150 mM NaCl

Bub1(1–553)/Bub3 complex (3×FLAG–Bub1(1–553) with untagged Bub3), sequence (O43683 1-553, chain 1 of 2): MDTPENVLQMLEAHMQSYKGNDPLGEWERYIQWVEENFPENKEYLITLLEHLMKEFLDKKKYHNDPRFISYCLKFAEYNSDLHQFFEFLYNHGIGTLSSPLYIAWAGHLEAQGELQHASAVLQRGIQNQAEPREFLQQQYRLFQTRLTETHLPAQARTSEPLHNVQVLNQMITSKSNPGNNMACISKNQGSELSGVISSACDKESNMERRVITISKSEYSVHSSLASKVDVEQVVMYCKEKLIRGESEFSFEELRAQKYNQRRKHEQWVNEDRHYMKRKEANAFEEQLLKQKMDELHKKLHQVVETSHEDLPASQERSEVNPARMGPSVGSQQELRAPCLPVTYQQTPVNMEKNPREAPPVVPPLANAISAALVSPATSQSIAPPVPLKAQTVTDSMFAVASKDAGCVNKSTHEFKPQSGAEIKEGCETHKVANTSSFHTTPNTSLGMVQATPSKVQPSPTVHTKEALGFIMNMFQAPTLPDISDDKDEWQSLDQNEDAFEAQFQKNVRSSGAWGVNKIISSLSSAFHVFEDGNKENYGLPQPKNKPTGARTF
Bub1(1–553)/Bub3 complex (3×FLAG–Bub1(1–553) with untagged Bub3), sequence (O43684 whole entry, chain 2 of 2): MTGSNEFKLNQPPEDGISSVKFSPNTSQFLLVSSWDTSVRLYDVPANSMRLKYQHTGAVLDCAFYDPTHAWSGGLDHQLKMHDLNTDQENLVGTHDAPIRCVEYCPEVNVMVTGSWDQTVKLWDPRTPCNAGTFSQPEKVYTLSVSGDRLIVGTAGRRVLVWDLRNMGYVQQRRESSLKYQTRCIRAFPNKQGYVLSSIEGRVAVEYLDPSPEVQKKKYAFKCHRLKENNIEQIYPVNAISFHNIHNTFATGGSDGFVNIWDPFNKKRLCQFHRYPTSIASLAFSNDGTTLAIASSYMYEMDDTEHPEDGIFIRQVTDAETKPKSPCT
T1 sequence (O60566 whole entry, chain 1 of 2): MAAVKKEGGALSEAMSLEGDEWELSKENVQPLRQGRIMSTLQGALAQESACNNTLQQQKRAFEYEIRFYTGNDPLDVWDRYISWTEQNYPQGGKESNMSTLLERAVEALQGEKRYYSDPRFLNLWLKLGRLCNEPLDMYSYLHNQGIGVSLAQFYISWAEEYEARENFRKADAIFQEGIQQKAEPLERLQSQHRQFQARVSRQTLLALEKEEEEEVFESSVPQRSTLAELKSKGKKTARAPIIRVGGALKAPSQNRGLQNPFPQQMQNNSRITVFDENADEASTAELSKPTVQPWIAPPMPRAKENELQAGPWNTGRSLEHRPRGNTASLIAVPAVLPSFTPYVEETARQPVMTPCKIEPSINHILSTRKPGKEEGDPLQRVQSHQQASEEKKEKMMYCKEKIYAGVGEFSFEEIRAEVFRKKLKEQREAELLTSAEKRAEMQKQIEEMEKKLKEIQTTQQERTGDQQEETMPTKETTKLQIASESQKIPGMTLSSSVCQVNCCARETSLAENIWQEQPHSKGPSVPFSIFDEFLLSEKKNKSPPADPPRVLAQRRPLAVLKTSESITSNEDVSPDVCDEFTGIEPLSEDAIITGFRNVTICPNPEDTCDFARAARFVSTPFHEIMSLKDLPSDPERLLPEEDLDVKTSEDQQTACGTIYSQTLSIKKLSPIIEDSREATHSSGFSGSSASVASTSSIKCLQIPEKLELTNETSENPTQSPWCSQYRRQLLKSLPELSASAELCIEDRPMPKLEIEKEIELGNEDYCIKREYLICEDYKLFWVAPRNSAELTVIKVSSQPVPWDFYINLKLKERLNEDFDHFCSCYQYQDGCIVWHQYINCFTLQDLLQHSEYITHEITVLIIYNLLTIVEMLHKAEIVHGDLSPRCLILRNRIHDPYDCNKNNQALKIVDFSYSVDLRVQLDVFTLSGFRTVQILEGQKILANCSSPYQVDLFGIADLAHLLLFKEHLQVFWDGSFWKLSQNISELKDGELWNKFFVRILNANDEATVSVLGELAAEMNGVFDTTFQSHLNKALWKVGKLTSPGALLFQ
T1 sequence (O43684 whole entry, chain 2 of 2): as the sequence (O43684 whole entry, chain 2 of 2) above

B1: MELT12p peptide (MDIT phosphorylated), Btn-PEG2-C-PEG2-EDDKND-Nle-DI-Tp-KSYTIEIN-amide (peptide)
peptide: EDDKNDMDITKSYTIEIN
modifications: N-terminal Btn-PEG2-C-PEG2 (biotin, PEG2, cysteine, PEG2); Nle (norleucine) at position 7 of the letters, written here as M; phosphothreonine (Tp) at position 10 of the letters (MDIT); C-terminal amide
Kd [1]: 936 nM
Kd [2]: 259 nM
Kd [3]: 82 nM
Kd [4]: 579 nM
Kd [5]: 258 nM
Kd [6]: 379 nM

B2: MELT12 peptide (unphosphorylated), Btn-PEG2-C-PEG2-EDDKND-Nle-DI-T-KSYTIEIN-amide (peptide)
peptide: EDDKNDMDITKSYTIEIN
modifications: N-terminal Btn-PEG2-C-PEG2 (biotin, PEG2, cysteine, PEG2); Nle (norleucine) at position 7 of the letters, written here as M; C-terminal amide
Kd [4]: > 379000 nM
Kd [5]: > 195000 nM

B3: MELT16p peptide, ENHKND-NIe-DI-Tp-QSC-NIe-VEIDY-amide (peptide)
peptide: ENHKND[Nle]DI[pT]QSC[Nle]VEIDY-NH2
modifications: N-terminus assumed
SMILES: CCCC[C@H](NC(=O)[C@H](CC(=O)O)NC(=O)[C@H](CC(N)=O)NC(=O)[C@H](CCCCN)NC(=O)[C@H](Cc1c[nH]cn1)NC(=O)[C@H](CC(N)=O)NC(=O)[C@@H](N)CCC(=O)O)C(=O)N[C@@H](CC(=O)O)C(=O)N[C@H](C(=O)N[C@H](C(=O)N[C@@H](CCC(N)=O)C(=O)N[C@@H](CO)C(=O)N[C@@H](CS)C(=O)N[C@@H](CCCC)C(=O)N[C@H](C(=O)N[C@@H](CCC(=O)O)C(=O)N[C@H](C(=O)N[C@@H](CC(=O)O)C(=O)N[C@@H](Cc1ccc(O)cc1)C(N)=O)[C@@H](C)CC)C(C)C)[C@@H](C)OP(=O)(O)O)[C@@H](C)CC
Kd [4]: 757 nM
Kd [5]: 286 nM
